A protein production outcome set (Wang et al. 2014)

Assay: label from the status in PepcDB records

Sequence	protein production
MNDAAVWVPVPAMFYWGWLVPLIFGTIFGWRYHRDKVRLGNGIWFSLFFYSFLTMLAITILGSNIHWLIIISGALFVLLILLIGLIFTLQAFLLLWNAWIMWRHESHTLANMLTLYLGLGILVLPFLGNLLSSHVPQPVSYFLTLFPNLVIFYLGFLFYNYLTMLTIYQFNWPRLRQDYIIVLGDGWAETQSKTTFQNMQFSKQLIAQGPAKNPRTIFVTNKYGRLQI	failed
MTMSLIAGVAAFVLTVLAMPHFITYYKIKKIGGQQMHEDVKQHLAKAGTPTMGGTVFLVVAILISLIFNFHVFTEGHPAYGATAGILFVILIYGIIGFLDDFLKIFHQINEGLKPWQKMALQIVAGLLFYFIHVLPSGTNSLAIGGLTIQLGVFYVLFVLFWIVGFSNAVNLTDGIDGLASVSVVISLIAYGIIAFVKGELAILTIIITMIGALLGFFVFNHKPAKVFMGDVGSLSLGAMLAVISIALRVEWTLLLIGVVYVLETASVMLQVSYFKYTKRKYGEGRRIFRMTPFHHHLELGGISGKGEKWSEWKVDAFLWTIGALASSITLWMVLGNVMK	failed
GSHMLGGKGRPSGVGGYRILVTTSRRPSPRIRSFVKDLSATIPGAFRFTRGHYSMEELAREAIIRGADRIVVVGERRGNPGIIRVYAVEGPERPDNIVSFIVKGVSLSRERRWGLPSLRGGEVLVARPLDSGVAVEFADAFVIAFHARLKPPEAAGYVEAVIESLDARTVAVTFRYGGAPVGPMLRLGKPAEMVKRGRRV	not failed
MKIYASDEQYKQMNEELDERVESLVSELTLDEKIRLMCQYQEAVPRLGIGKYKHGTEGAHGVAWLGKATVFPQNIGLGCTWNEELMKKIGDVIAEEARVYYQENPEQNGLTIWAPTVDMERDPRWGRTEEAYGEDPYLTGKLTTELIKGMQGDHPFYLKTAATLKHFLANNNEEARTECSVSIDPRNLREYYLKAFEPQVKEGHVQCVMTAYNAVNGTLCNMNPDVNAILKEEWGLQGFVVSDACDVVGSVDDHQFVESYAEAVALSIKNGIDNVTDDEKIIHRAIGDALEQGLLSEEDLDQALKRVFRVRIRLGEFDQENKNPYATVAKEKLCA	failed
TNDEETIQQQILALSADKRNFLRDPPAGVQFNFDFDQMYPVALVMLQEDELLSKMRFALVPKLVKEEVFWRNYFYRVSLIKQSAQLT	not failed
MSLKRRQTNIIGVYLADYGGSFYGELLEGIKKGLALFDYEMIVCSGKKSHLFIPEKMVDGAIILDWTFPTKEIEKFAERGHSIVVLDRTTEHRNIRQVLLDNRGGATQAIEQFVNVGSKKVLLLSGPEKGYDSQERLAVSTRELTRFGIPYEIIQGDFTEPSGYAAAKKILSQPQTEPVDVFAFNDEMAIGVYKYVAETNYQMGKDIRIIGFDNSELGAFVQPRLATIAYSKHRWGMVAAEKIIHLMRGEAAESEHIYTRFIEGESFPSEGHHHHHH	not failed
MDREALDRKRTWVTQGPIVKVILALATPIVAARLLAATQESVDAIFLGRVSTEDLAAPAAASPLLWLFAGLGIGINTTLSALVSQAIGARDYASAQRYASKLLGATLMLGAASALAIILTAETVFILQGFQGRSLEVALAYTLVEAVGMPFMLALFYFNAVMAASGDTRTPFKVSALSSILNVILDPILIFGLILLPPLGAVGAAVATVLARAAAVSIAFYLLLRGAPGFRVKPSMPDRQLIGHILRIGGPVSLQRLVVSMGFLVMMGIVARLGAPVVAAYNVSLVIIHIVQSATFGFNIATATVVGQNLGASNISRAVRAAYTGVALVFGLLSIGAVAIVGGRSMLVSLFTSIEEVQFYAERMISIVALGMPFLGAFFTAMGVARGSGRTAFISALGIARLWLLRIPAAYTLVYIYSLGDMGVWLAMTLSNIIAGTLAIAWVAGRTWAKPIVKRVPPEPLGEKPPAIPEPAINR	failed
MTIKIALLGFGTVAKGIPYLLKENQHKLLSLEGEDIVIDKVLVRDNESRQRFINQGFTYNFVTEINTILQDSQIDIVVELMGGIEPAKTYLSQALGFGKHIVTANKDLIALHGKELMDLADARGLALFYEGAVAGGIPILRTLSHSFASDKMTRLLGILNGTSNFMLTKMFEEGWSYEQALKKAQELGYAESDPTNDVEGIDTAYKATILSQFGFGMPIDFDDVNYKGISSIRSEDVEVAQEMGFAIKLVADLRETPTGISVDVSPTLISQKHPLAAVNHVMNAVFIESIGIGQSLFYGPGAGQNPTATSVLADIIDISRSIRSQIKIKPMNTYHCPCRLSMQSDIFNEYYLAISLRNAEDSDTLGRYFEQENIGLKNVIEKALGDKQQEIYVLTDEVSQEKITQFIEEFPESGVIQLINVFKVIGG	failed
MNEKTINEQYAYIRTLLEEKRLKEALMQLESLLWQCPDWDLRTRLEQLQTSYKYMLEYMRQGANDPERWNVYRKLIADTWEIADRSRLLMLDNASSRYYHEVRRTPRPESLSAYTLKKLLHMLESFNDDLAVSGLLSDEKMDEVLKRHEETLKYMFLQTWTNSAWTPEEEEDAQSMLTSELLPVNDLCLFISAVTLSLMECFDLRKIMWLLDAYRHPDVNAGQRALVGVIFIFHIYKNRLSLYNDLVKRVDLMDEISPFKEDVARIYHQMLLCQETEKIDKKMREEIIPEMLKNVSSMRNMRFGFEENEDENDDKNPDWADAFEQSGLGDKLREMNELQLEGADVYMSTFAALKSYPFFREVQNWFYPFSKQQSDVIKQLKQEGNEKNTLLDLILQSGFFSNSDKYSLFFTIRQLPKAQQDMMLSQLGEQQVAELTEKSSAETMKKFNERPGTVSNQYLHDLYRFFKLSVRRHEFRDIFKEKLDLHHIPALSNVLYSEDILFPIADFYLKKERWNEAIEVYEEMETIGALQERGAEYYQKLGYALQKSKKYAEAIGAYLKADTLKPDNIWNNRHLAICYRLNRNYQAALSYYKKVEEATPEDTNVIFHIGSCLAELGQYEEAANYFFKLDFIESNCIKAWRGIGWCSFISRKYEQAMKYYEKIIEQKPLAIDYMNAGHVAWTMGDIQKAAALYGKSITANGNRERFLEMFRKDEEALLKQGIQEEDIPLMLDLL	failed
MAQQTPLYEQHTLCGARMVDFHGWMMPLHYGSQIDEHHAVRTDAGMFDVSHMTIVDLRGSRTREFLRYLLANDVAKLTKSGKALYSGMLNASGGVIDDLIVYYFTEDFFRLVVNSATREKDLSWITQHAEPFGIEITVRDDLSMIAVQGPNAQAKAATLFNDAQRQAVEGMKPFFGVQAGDLFIATTGYTGEAGYEIALPNEKAADFWRALVEAGVKPCGLGARDTLRLEAGMNLYGQEMDETISPLAANMGWTIAWEPADRDFIGREALEVQREHGTEKLVGLVMTEKGVLRNELPVRFTDAQGNQHEGIITSGTFSPTLGYSIALARVPEGIGETAIVQIRNREMPVKVTKPVFVRNGKAVA	not failed
MADPKELQDKFWKALKSDRTVMLGLDGVEDGHARPMTAQIEGDSGGPIWFFTSKDNALIAMLGQGRRVIGAFSSKGHDLFASISGSLREDTDPAVVDRLWNPYVAAWYEGGKDDPKLALLRLDADHAQIWLNGSSLLAGIKVLLGV	not failed
MDELLEKAKKVREAWDVLRNATTREKNKAIKKIAEKLDERRKEILEANRIDVEKARERGVKESLVDRLALNDKRIDEMIKACETVIGLKDPVGEVIDSWVREDGLRIARVRVPIGPIGIIYESRPNVTVETTILALKSGNTILLRGGSDALNSNKAIVSAIREALKETEIPESSVEFIENTDRSLVLEMIRLREYLSLVIPRGGYGLISFVRDNATVPVLETGVGNCHIFVDESADLKKAVPVIINAKTQRPGTCNAAEKLLVHEKIAKEFLPVIVEELRKHGVEVRGCEKTREIVPDVVPATEDDWPTEYLDLIIAIKVVKNVDEAIEHIKKYSTGHSESILTENYSNAKKFVSEIDAAAVYVNASTRFTDGGQFGFGAEIGISTQRFHARGPVGLRELTTYKFVVLGEYHVRE	not failed
MLKQRIITALILLPIALCGFFLLEGSGFALFIGLVVSLGAWEWARLAGFEAQPARVAFAVVVAALLFLMHLVPGVAPWVLGAAVLWWALATYLVLTYPRSSEQWSGAAPKLLIGLLILLPAWQGLVFIKQLPLGNWLIMAVMVLVWGADIGAYFSGKAFGKRKLAPQVSPGKSWEGVYGGLALSLVITAVVGLVRDWTLGQMILGLLGAAIVVFISVVGDLTESMFKRQSGIKDSSNLLPGHGGVLDRIDSLTAAIPVFAVLLWMAAL	failed
MTKPLILASQSPRRKELLDLLQLPYSIIVSEVEEKLNRNFSPEENVQWLAKQKAKAVADLHPHAIVIGADTMVCLDGECLGKPQDQEEAASMLRRLSGRSHSVITAVSIQAENHSETFYDKTEVAFWSLSEEEIWTYIETKEPMDKAGAYGIQGRGALFVKKIDGDYYSVMGLPISKTMRALRHFDIRA	not failed
